Reference: the supplement of paper PMC10724198
± gives the standard deviation of the averaged measurements.

Tests used:
[1] = system: Saccharomyces cerevisiae; assay: protein stability index of tFT-peptide fusion (C-terminal peptide) (PSI (0-1 scale)); higher = more stable (slower turnover)
Method: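 MPS profiling in S. cerevisiae of the tFT-X12 degron library: putative degron peptides plus stable controls, 12 aa, fused to the C-terminus of a sfGFP-mCherry timer. Cells are FACS-sorted into 8 mCherry/sfGFP bins and deep-sequenced. PSI runs from 0 (unstable) to 1 (stable). Backgrounds are wild type, das1Δ and doa10Δ at 30 °C, and wild type, das1Δ, cdc34-1 and cdc53-1 at 37 °C; 2-3 technical replicates each.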

[2] = system: Saccharomyces cerevisiae; assay: as above; details: genetic background: wild type; temperature: 30 C
[3] = genetic background: cdc34-1, temperature: 37 C
[4] = genetic background: cdc53-1, temperature: 37 C
[5] = genetic background: das1 deletion, temperature: 30 C
[6] = genetic background: das1 deletion, temperature: 37 C
[7] = genetic background: doa10 deletion, temperature: 30 C
[8] = genetic background: wild type, temperature: 30 C
[9] = genetic background: wild type, temperature: 37 C
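Further: PSI is a weighted mean of sequencing reads over stability bins, variants kept only with over 10 reads, mCherry proximal and sfGFP distal, peptide attached via GGGS linker.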

Sequence	protein stability index [1, 3]	protein stability index [1, 4]	protein stability index [1, 5]	protein stability index [1, 6]	protein stability index [1, 7]	protein stability index [1, 8]	protein stability index [1, 9]	protein stability index [2]
RRVLVVPCIWHM	0.653 ± 0.031	0.73 ± 0.011	0.604 ± 0.015	0.673 ± 0.048	0.174 ± 0.026	0.223 ± 0.022	0.416 ± 0.022	0.327 ± 0.0065
RSGWWQWGRPGT	0.698 ± 0.031	0.7525 ± 0.0031	0.661 ± 0.033	0.7712 ± 0.0041	0.692 ± 0.034	0.691 ± 0.03	0.734 ± 0.025	0.752 ± 0.049
RSIAFLLGQFLS	0.6679 ± 0.0052	0.745 ± 0.016	0.68 ± 0.027	0.74305 ± 0.00053	0.372 ± 0.019	0.395 ± 0.047	0.637 ± 0.016	0.467 ± 0.013
RSKLGVLVILWF	0.288 ± 0.02	0.391 ± 0.011	0.293 ± 0.031	0.466 ± 0.012	0.243 ± 0.016	0.273 ± 0.025	0.448 ± 0.0055	0.353 ± 0.037
RSYAYIIVATVA	0.153 ± 0.021	0.197 ± 0.0038	0.182 ± 0.026	0.284 ± 0.014	0.14 ± 0.0081	0.178 ± 0.025	0.214 ± 0.024	0.274 ± 0.023
RTALSSPRPALL	0.6896 ± 0.0052	0.7635 ± 0.0053	0.701 ± 0.017	0.75 ± 0.0094	0.7131 ± 0.0061	0.723 ± 0.011	0.733 ± 0.0077	0.7799 ± 0.006
RTFPYSALSFVS	0.618 ± 0.032	0.712 ± 0.013	0.652 ± 0.046	0.718 ± 0.015	0.216 ± 0.022	0.235 ± 0.045	0.445 ± 0.048	0.457 ± 0.013
RVFRRFCCVISM	0.312 ± 0.034	0.342 ± 0.018	0.342 ± 0.029	0.49 ± 0.045	0.437 ± 0.027	0.339 ± 0.022	0.439 ± 0.015	0.366 ± 0.025
RVFVGLVDFLFW	0.437 ± 0.033	0.553 ± 0.073	0.402 ± 0.025	0.6062 ± 0.0026	0.37 ± 0.019	0.394 ± 0.033	0.57 ± 0.035	0.471 ± 0.072
RVVITYLVLSNR	0.648 ± 0.06	0.686 ± 0.013	0.509 ± 0.018	0.646 ± 0.011	0.522 ± 0.039	0.505 ± 0.018	0.6445 ± 0.0056	0.547 ± 0.094
RWALPALWAYAA	0.493 ± 0.029	0.715 ± 0.034	0.583 ± 0.025	0.7029 ± 0.007	0.0884 ± 0.011	0.105 ± 0.012	0.16 ± 0.05	0.146 ± 0.094
RWGLFIGIVIGF	0.146 ± 0.0085	0.211 ± 0.003	0.219 ± 0.037	0.338 ± 0.0087	0.235 ± 0.014	0.217 ± 0.024	0.317 ± 0.025	0.337 ± 0.021
RYQDLSDWRRIS	0.412 ± 0.02	0.6574 ± 0.0031	0.629 ± 0.0036	0.753 ± 0.028	0.073 ± 0.0096	0.0791 ± 0.017	0.0794 ± 0.017	0.159 ± 0.0075
RYTWHGICIVTR	0.43107 ± 0.00014	0.456 ± 0.013	0.312 ± 0.027	0.4805 ± 0.0035	0.285 ± 0.0063	0.313 ± 0.019	0.476 ± 0.0052	0.4401 ± 0.0033
SCCLLICIFFIF	0.317 ± 0.045	0.408 ± 0.065	0.306 ± 0.015	0.391 ± 0.064	0.227 ± 0.0076	0.231 ± 0.029	0.33 ± 0.0056	0.297 ± 0.0023
SCLSYRTRLLAF	0.52 ± 0.045	0.617 ± 0.011	0.477 ± 0.019	0.587 ± 0.0083	0.406 ± 0.0086	0.41 ± 0.014	0.504 ± 0.011	0.49 ± 0.0059
SCRCIIFVCCFW	0.256 ± 0.0043	0.404 ± 0.032	0.262 ± 0.025	0.465 ± 0.057	0.235 ± 0.0024	0.237 ± 0.034	0.388 ± 0.023	0.384 ± 0.011
SFFVCAGFWVLC	0.419 ± 0.0091	0.511 ± 0.081	0.347 ± 0.025	0.539 ± 0.049	0.248 ± 0.011	0.289 ± 0.016	0.456 ± 0.0091	0.363 ± 0.024
SFLCGCVVCWLW	0.464 ± 0.063	0.547 ± 0.039	0.397 ± 0.026	0.552 ± 0.011	0.4 ± 0.027	0.396 ± 0.014	0.505 ± 0.0073	0.449 ± 0.04
SFLVRFVYFFAL	0.54 ± 0.043	0.619 ± 0.025	0.549 ± 0.021	0.6696 ± 0.0039	0.229 ± 0.02	0.232 ± 0.027	0.309 ± 0.017	0.314 ± 0.019

Sequence	protein stability index [1, 3]	protein stability index [1, 4]	protein stability index [1, 5]	protein stability index [1, 6]	protein stability index [1, 7]	protein stability index [1, 8]	protein stability index [1, 9]	protein stability index [2]
SFQLVFLCVLIW	0.136 ± 0.0088	0.129 ± 0.008	0.155 ± 0.024	0.237 ± 0.0049	0.203 ± 0.011	0.154 ± 0.0091	0.184 ± 0.011	0.218 ± 0.029
SFTPPRVCLCFS	0.465 ± 0.04	0.503 ± 0.008	0.319 ± 0.029	0.5205 ± 0.0047	0.2778 ± 0.002	0.3 ± 0.024	0.496 ± 0.02	0.3999 ± 0.0022
SFVCFFLNLFVY	0.0549 ± 0.013	0.138 ± 0.013	0.172 ± 0.032	0.272 ± 0.017	0.123 ± 0.021	0.123 ± 0.019	0.18 ± 0.018	0.164 ± 0.0077
SGCWGRRLWFFN	0.668 ± 0.04	0.791 ± 0.018	0.66 ± 0.037	0.7567 ± 0.0052	0.189 ± 0.018	0.235 ± 0.016	0.453 ± 0.011	0.325 ± 0.065
SIFWWWLVFILG	0.469 ± 0.0093	0.4759 ± 0.0034	0.362 ± 0.02	0.502 ± 0.008	0.366 ± 0.018	0.368 ± 0.026	0.462 ± 0.011	0.418 ± 0.085
SIIRHLFHPSST	0.67 ± 0.026	0.7184 ± 0.0046	0.643 ± 0.0091	0.72688 ± 9e-05	0.65 ± 0.018	0.659 ± 0.03	0.695 ± 0.018	0.709 ± 0.013
SIPFWPVLFFLL	0.353 ± 0.021	0.475 ± 0.014	0.494 ± 0.018	0.6088 ± 0.0044	0.0877 ± 0.011	0.091 ± 0.011	0.0952 ± 0.0057	0.14 ± 0.033
SIRIIVVVRGAS	0.528 ± 0.048	0.628 ± 0.056	0.433 ± 0.023	0.61 ± 0.071	0.393 ± 0.024	0.41 ± 0.017	0.543 ± 0.02	0.382 ± 0.12
SLCSRLVVVAWF	0.531 ± 0.017	0.599 ± 0.026	0.432 ± 0.026	0.608 ± 0.014	0.374 ± 0.035	0.386 ± 0.0062	0.553 ± 0.026	0.494 ± 0.024
SLRKRILCRFEY	0.6572 ± 0.0064	0.708 ± 0.011	0.655 ± 0.012	0.7348 ± 0.0056	0.368 ± 0.041	0.4388 ± 0.0014	0.599 ± 0.023	0.511 ± 0.023
SLSIFCLMLMLF	0.564 ± 0.04	0.601 ± 0.029	0.467 ± 0.016	0.565 ± 0.025	0.425 ± 0.015	0.406 ± 0.021	0.512 ± 0.012	0.4537 ± 0.0037
SPPSFPPLLLLS	0.668 ± 0.043	0.7368 ± 0.00078	0.608 ± 0.015	0.7386 ± 0.0036	0.326 ± 0.028	0.362 ± 0.022	0.541 ± 0.028	0.48 ± 0.022
SPSFLVIFTMLL	0.528 ± 0.023	0.577 ± 0.01	0.433 ± 0.034	0.6018 ± 0.0041	0.438 ± 0.044	0.444 ± 0.013	0.596 ± 0.017	0.468 ± 0.015
SPSSLPRPLFLS	0.592 ± 0.015	0.726 ± 0.017	0.616 ± 0.015	0.7356 ± 0.0018	0.138 ± 0.033	0.163 ± 0.02	0.289 ± 0.026	0.261 ± 0.053
SPVPITVAVGCR	0.473 ± 0.0085	0.491 ± 0.012	0.352 ± 0.034	0.5444 ± 0.0028	0.329 ± 0.008	0.357 ± 0.021	0.499 ± 0.018	0.407 ± 0.029
SQSNQSIIRKNV	0.7 ± 0.043	0.713 ± 0.0077	0.63 ± 0.013	0.737 ± 0.016	0.296 ± 0.034	0.36 ± 0.032	0.551 ± 0.069	0.453 ± 0.02
SSCLPAPPPLPL	0.6491 ± 0.003	0.747 ± 0.025	0.682 ± 0.042	0.698 ± 0.0084	0.677 ± 0.0075	0.672 ± 0.021	0.701 ± 0.017	0.4965 ± 0.0048
SSFFFLFCFFPS	0.575 ± 0.13	0.619 ± 0.027	0.48 ± 0.062	0.646 ± 0.055	0.444 ± 0.031	0.449 ± 0.019	0.604 ± 0.017	0.471 ± 0.047
SSFPGPPLPPDP	0.704 ± 0.024	0.74 ± 0.013	0.652 ± 0.024	0.731 ± 0.022	0.682 ± 0.038	0.7 ± 0.019	0.7108 ± 0.0069	0.59 ± 0.17
